According to patent EP1280904B1 (CALIFORNIA INSTITUTE OF TECHNOLOGY, dated 2005):
Where no end group is shown, it is not given here.

Assays:
Assay in all cases: cell-based or functional assay
MRGA1-GFP fusion protein = target: T1, MRGA1-GFP fusion protein (mouse, UniProt Q91WW5 1-304)
T1 sequence: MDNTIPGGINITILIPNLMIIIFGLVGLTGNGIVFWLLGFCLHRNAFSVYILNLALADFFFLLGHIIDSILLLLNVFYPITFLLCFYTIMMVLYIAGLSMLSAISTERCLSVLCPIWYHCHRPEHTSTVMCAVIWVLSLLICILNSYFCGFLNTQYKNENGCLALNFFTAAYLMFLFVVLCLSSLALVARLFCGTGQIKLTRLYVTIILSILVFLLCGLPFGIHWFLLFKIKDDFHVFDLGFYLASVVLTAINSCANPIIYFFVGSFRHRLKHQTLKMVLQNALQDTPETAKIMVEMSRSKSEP

[1] = target: MRGA4-GFP fusion protein (mouse) (UniProt Q91WW2)
MAS1 = target: MAS1

MRGA4-GFP fusion protein (mouse), sequence (Q91WW2 9-313 A204G limits assumed, form in doubt): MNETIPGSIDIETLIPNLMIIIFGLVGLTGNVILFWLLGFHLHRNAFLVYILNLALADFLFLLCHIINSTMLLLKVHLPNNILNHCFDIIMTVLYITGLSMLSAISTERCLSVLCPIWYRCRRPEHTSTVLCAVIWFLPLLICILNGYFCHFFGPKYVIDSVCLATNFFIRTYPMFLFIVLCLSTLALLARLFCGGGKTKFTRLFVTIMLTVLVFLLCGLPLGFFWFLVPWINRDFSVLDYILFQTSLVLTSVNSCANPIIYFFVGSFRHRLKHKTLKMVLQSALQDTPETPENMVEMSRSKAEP

ACTH (peptide) was tested, and the EC50 of calcium dose-response, HEK cells expressing G 15 (data not shown) (MRGA1-GFP fusion protein) was 60 nM and the EC50 of calcium dose-response, HEK cells expressing G 15 (data not shown) [1] was 200 nM.

NPAF (peptide) gave an EC50 of calcium dose-response, HEK cells expressing G 15 [1] of 60 nM.

In the case of NPFF (peptide), the EC50 of calcium dose-response, HEK cells expressing G 15 (MRGA1-GFP fusion protein) is reported as 200 nM and the EC50 of calcium dose-response, HEK-G 15 cells (MAS1) is reported as 400 nM.

For FLRF-NH2 [FLRFamide], the “EC50 of calcium dose-response, HEK cells expressing G 15” value (MRGA1-GFP fusion protein) was 20 nM.
